Test results from article PMC8913689, “Atomic force microscopy-single-molecule force spectroscopy unveils GPCR cell surface architecture” (Communications Biology, 2022).

Target: the molecule itself
Assay: AFM single-molecule force spectroscopy (AFM-SMFS); living WTT-CHO cells transfected with 1 µg of HA-GPCR vector, basal state, 37 °C; anti-HA antibody on the AFM tip pulls the HA-receptor out of the membrane; unfolding distances fitted by a Gaussian mixture (BIC) and each population assigned to an oligomeric state by the receptor's theoretical length

B1: HA-angiotensin II subtype 1a receptor (receptor, UniProt P25095 1-359, looked up)
chain: MALNSSAEDGIKRIQDDCPKAGRHSYIFVMIPTLYSIIFVVGIFGNSLVVIVIYFYMKLKTVASVFLLNLALADLCFLLTLPLWAVYTAMEYRWPFGNHLCKIASASVSFNLYASVFLLTCLSIDRYLAIVHPMKSRLRRTMLVAKVTCIIIWLMAGLASLPAVIHRNVYFIENTNITVCAFHYESRNSTLPIGLGLTKNILGFLFPFLIILTSYTLIWKALKKAYEIQKNKPRNDDIFRIIMAIVLFFFFSWVPHQIFTFLDVLIQLGVIHDCKISDIVDTAMPITICIAYFNNCLNPLFYGFLGKKFKKYFLQLLKYIPPKAKSHSSLSTKMSTLSYRPSDNMSSSAKKPASCFEVE
notes: angiotensin II subtype 1a receptor, family A GPCR; theoretical contour length of the HA-tagged receptor 147 nm at 0.4 nm per amino acid; The subtype name 1a points to a rodent receptor (rat P25095 or mouse P29754, both 359 residues); 147 nm (about 368 residues) fits 359 residues plus a 9-residue HA tag; also called HA-AT1a-R; AT1a-R; source: WTT-CHO cells, transiently transfected (1 µg vector); …
With B1 the “stoichiometry N” value was 2.
